T1: full-length PSTPIP tagged with the FLAG epitope at the C-terminus (murine, UniProt P97814 1-415)
T1 construct: In vitro transcribed/translated in rabbit reticulocyte lysate, or expressed in COS cells
T1 sequence: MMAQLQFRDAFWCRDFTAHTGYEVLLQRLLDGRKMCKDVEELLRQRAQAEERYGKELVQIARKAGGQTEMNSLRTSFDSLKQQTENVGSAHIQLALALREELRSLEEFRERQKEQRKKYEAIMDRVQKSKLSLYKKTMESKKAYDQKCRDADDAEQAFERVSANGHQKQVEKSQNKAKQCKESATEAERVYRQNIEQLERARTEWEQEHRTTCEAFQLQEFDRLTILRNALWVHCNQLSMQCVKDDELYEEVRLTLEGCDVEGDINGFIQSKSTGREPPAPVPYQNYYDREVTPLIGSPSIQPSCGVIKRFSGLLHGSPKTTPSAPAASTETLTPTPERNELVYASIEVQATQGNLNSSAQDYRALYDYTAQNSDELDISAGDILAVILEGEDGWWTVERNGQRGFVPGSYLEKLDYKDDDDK

B1: PXXP-PEST peptide (PTP PEST 761-780) (peptide)
peptide: GFGNRCGKPKGPRDPPSEWT
notes: Synthetic, FMOC chemistry; also called proline rich peptide derived from the C-terminal homology region of PTP PEST
B2: PXXP-HSCF peptide (PTP HSCF 432-451) (peptide)
peptide: GFNLRIGRPKGPRDPPAEWT
notes: Synthetic, FMOC chemistry; also called proline rich peptide derived from the C-terminal homology region of PTP HSCF
B3: PXXP-PEP peptide (PTP PEP 782-800) (peptide)
peptide: GFGNRFSKPKGPRNPPSAW
notes: Synthetic, FMOC chemistry; also called proline rich peptide derived from the C-terminal homology region of PTP PEP

The binders below were run against T1, full-length PSTPIP tagged with the FLAG … (assay: peptide competition of the GST-PST-rich+CTH PTP HSCF pulldown of in vitro translated PSTPIP).
Experimental: This was reacted for 1 hour at 4° C. and then the resin washed 6 times in HEPES/Triton binding buffer before SDS gel electrophoresis. The peptides were synthesized on an automated Milligen 9050 Peptide Synthesizer using standard solid phase chemistry with FMOC protected amino acids on a p-alkoxybenzyl alcohol resin. Dried peptides were re-suspended in the HEPES/Triton Binding buffer at a concentration of 10 mg/ml. Peptide inhibition was performed by adding the peptide first to the in vitro translation product and then the GST-fusion followed by the GSH-Sepharose. The binding/washing steps were as previously described. The peptides synthesized and the PTPs they were derived from were:
The region of PTP HSCF which interacts with PSTPIP was identified by producing deletion mutants of the enzyme missing either the 20 amino acid C-terminal domain which is highly conserved in all of the PEST PTPs (Yang et al. (1993) supra, Matthews et al., (1992) supra, Cheng et al., (1996) supra, Huang et al., (1996) supra, Aoki et al., (1996) Dosil et al., (1996) supra and Kim et al., (1996) supra) or both this domain as well as the longer proline, serine and threonine rich region C-terminal to the catalytic domain (FIG. 4A). FIG. 4B-C reveal that deletion of the C-terminal 20 amino acid homology domain of PTP HSCF completely abolished the interaction between PTP HSCF and PSTPIP. Because this region is conserved in all PEST PTPs, it is possible that both PTP PEST (Yang et al., (1993) supra) as well as PTP PEP (Matthews et al., (1992) supra) also interact with PSTPIP. In order to examine this possibility, as well as to examine if the 20 amino acid C-terminal region is sufficient for this interaction, 20 residue long peptides derived from the homologous C-terminal domain of three PEST PTPs were used to compete with the interaction between PTP HSCF and PSTPIP (FIG. 4D). In this form of the assay, a GST fusion derived from the PST-rich and C-terminal homology regions of the phosphatase was used to precipitate in vitro translated PSTPIP in the presence of varying amounts of peptides. […]

Row | Binder | lowest peptide concentration that effectively blocks the interaction [nM]
1 | B1 | ~800
2 | B2 | ~800
3 | B3 | ~800

Reference: patent US6887705B1, “Tyrosine phosphorylated cleavage furrow-associated proteins (PSTPIPs)” (Genentech, Inc., priority 1997, dated 2005)
